Values of other authors in paper PMC6704634.

Biological target: EGFR isoform I (Homo sapiens) (UniProt P00533)

Kd: 0.177 µM
Substance: EGF (from UniProt P01133)
